What was measured:
[1] = system: E. coli (ATCC 8739) / C. albicans (ATCC 10231); test: MIC of permeabilizer co-dosants with and without Tgase variant; format: cell-based
Experimental: (§1) E. coli (ATCC 8739) and C. albicans (ATCC 10231) were acquired from the American Type Culture Collection (ATCC) (Manassas, VA) and maintained as −80° C. frozen glycerol stocks.
The following day, the cell density of the saturated cultures was calculated using OD600 and cultures were diluted to 104 to 10^6 CFU/mL in sterile Mueller Hinton broth to generate the inoculum, and 100 μL of the inoculum was combined with 100 μL of serially diluted Tgase variant A3 (SEQ ID NO: 4) at a range of 0.0001-0.05 weight percent. Growth curves were measured by OD600 on a BioTek® Synergy Plate Reader. All test conditions were performed in triplicate. MIC was determined to be […] (0.005% w/v) against E. coli for the enzyme described in SEQ ID NO: 4 using OD600.
(§2) For MIC determination of yeast cultures, C. albicans (ATCC 10231) was grown overnight (24 hours) in Sabouraud Dextrose broth at 30° C. The following day, the cell density of the saturated cultures was calculated using OD600 and cultures were diluted to 104 to 10^6 CFU/mL in sterile Sabouraud Dextrose broth media to generate the inoculum, and 100 μL of the inoculum was combined with 100 μL of serially diluted Tgase variant at a range of 0.0001-0.05 weight percent. The cultures were grown overnight at 30° C. and growth curves were measured by OD600 on a BioTek® Synergy Plate Reader. All test conditions were performed in triplicate. MIC was determined to be […] (0.005% w/v) against C. albicans for the enzyme described in SEQ ID NO: 4 using OD600.
Aseptilase activities of Tgase variant A3 (SEQ ID NO: 4) in combination with each of the three permeabilizer co-dosants, polymyxin B, chlorhexidine, and a 10000:4000:1 mixture by weight of sodium hexametaphosphate, phytic acid and chlorhexidine, were tested. […] The experiments were performed as described in Example 5. The co-dosants were added into Tgase variant A3 (SEQ ID NO: 4) solutions at concentrations of 0.125 g/L, 0.05 g/L, and 350 mM, respectively. The results are shown in Table 12 with Tgase concentrations reported within the table at the best MIC.

[2] = system: C. albicans (ATCC 10231); test: MIC determination against C. albicans; format: cell-based
Experimental: as §1, §2

[3] = system: N,N-dimethylcasein; test: Rate of product formation over 60 minutes (protein functionalization assay); format: biochemical; set-up: key: −: a reduction in activity; +: an improvement between 1.2 and 2-fold; ++: an improvement between 2 and 5-fold; +++: an improvement greater than 5-fold; conditions: improvement relative to wild-type Tgase (SEQ ID NO: 2); initial rate over 60 min
Experimental: (§3) Enzymatic “productivity” is a measure of product formation or substrate disappearance over time, at a prescribed temperature under specified reaction conditions. It is the measure both the durability and reaction yield of the enzyme variant. In this instance, productivity is defined as total product formed over 24-hours at a constant substrate concentration when the enzyme is the rate limiting factor. The time is defined as 24 hours, which represents approaching or surpassing burnout, denaturation, or self-reaction of the enzyme variant. In other words, variants with higher productivity deliver a higher product yield in 24-hours than variants with lower productivity produce in the same period of time. “Rate” refers to the initial rate for an enzymatic reaction, at a prescribed temperature under specified reaction conditions. The enzyme produces product at an initial rate that is approximately linear for a short period after the start of the reaction. When concentrations of enzyme and substrate are the same across the sample set, initial rates between enzyme variants can be compared. In this instance, the linear range for production of product occurs in one hour. Enzyme variants with faster initial rates deliver a higher product yield in one hour than variants with slower initial rates produce at the same time-period. In some cases, improvements to initial rates also deliver a more productive variant. In some cases, improvements to initial rates result in faster decay of the enzyme variant reducing overall enzymatic productivity. Productivity and rate may be assessed as described in Example 2.
(§4) Table 6 depicts variants of Streptomyces mobaraensis Tgase and improvement to productivity and/or rate relative to wild-type Tgase (SEQ ID NO. 2) as determined in Example 3. Numbering of amino acid positions is in reference to the mature S. mobaraensis Tgase sequence depicted in SEQ ID NO. 2. A “−” indicates a reduction in activity. A “+” indicates an improvement between 1.2 and 2-fold. A “++” indicates an improvement between 2 and 5-fold. A “+++” indicates an improvement greater than 5-fold.
Rate was assessed by measuring the rate of product formation over 60 minutes of incubation using a kinetic method to take scans every 60 seconds to determine product formation, using reaction conditions as described in Example 4B. The enzyme produces product at an initial rate that is approximately linear for the first one hour of the reaction. The concentrations of enzyme and substrate are the same across the sample set for each enzyme variant. Enzyme variants with faster initial rates deliver a higher product yield in one hour than variants with slower initial rates produce at the same time-period.
(§5) Protein functionalization by Tgase variants was determined by the fluorogenic labeling of casein using monodansylcadaverine (e.g., a commercially available kit such as the Transglutaminase Fluorogenic Activity Assay Kit, T036, Zedira, Germany). Tgase activity was monitored by measuring fluorescence (excitation wavelength 332 nm; emission wavelength 500 nm) using a BioTek Synergy H1 microplate reader. Transglutaminase-catalyzed covalent coupling (crosslinking) of monodansylcadaverine with N,N-dimethylcasein produces a product that causes a shift in intensity and wavelength of fluorescence of the dansyl group now linked to the casein. The relative transglutaminase activity is shown by increase of fluorescence intensity over time. Enzyme variant loading was optimized based on expression levels, ensuring enzyme was the rate limiting factor. Briefly, cell-free reactions (set up as described in Example 2A) were first diluted 10-fold using phosphate buffer, pH 7.4, and a 5 microliter aliquot was analyzed.

[4] = system: N,N-dimethylcasein; test: Productivity: total product formed after 24 hours (protein functionalization assay); format: biochemical; conditions: improvement relative to wild-type Tgase (SEQ ID NO: 2); total product after 24 h
Experimental: as §3, §4
To evaluate productivity, total product formed was measured after 24-hours of incubation, using the assay described in Example 4B. The time is defined as 24 hours which represents approaching or surpassing burnout, denaturation, or self-reaction of the enzyme variant.
as §5

B1: A3: Tgase variant S2P Q50S Q74A K91H Q124L K151R K152R N282M G283A relative to SEQ ID NO: 2 (protein, UniProt P81453 77-407, looked up, variant S2P Q50S Q74A K91H Q124L K151R K152R N282M G283A)
Protein-glutamine …: DPDDRVTPPAEPLDRMPDPYRPSYGRAETVVNNYIRKWQQVYSHRDGRKSQMTEEQREWLSYGCVGVTWVNSGAYPTNRLAFASFDEDRFHNELKNGRPRSGETRAEFEGRVAKESFDEEKGFLRAREVASVMNRALENAHDESAYLDNLRRELANGNDALRNEDARSPFYSALRNTPSFKERNGGNHDPSRMKAVIYSKHFWSGQDRSSSADKRKYGDPDAFRPAPGTGLVDMSRDRNIPRSPTSPGEGFVNFDYGWFGAQTEADADKTVWTHGNHYHAPMASLGAMHVYESKFRNWSEGYSDFDRGAYVITFIPKSWNTAPDKVKQGWP
With B1 the “Aseptilase activity in combination with permeabilizers” value ([1]; co-dosed with polymyxin B, chlorhexidine, or hexametaphosphate/phytic acid/chlorhexidine) was “further improved by co-dosing with cell membrane permeabilizers”, the “concentration of Tgase at the best MIC” value ([1]; in combination with 10000:4000:1 hexametaphosphate, phytic acid and chlorhexidine) was 200 ppm and the “concentration of Tgase at the best MIC” value ([1]; in combination with Chlorhexidine) was 200 ppm. For the same molecule, the “concentration of Tgase at the best MIC” value ([1]; in combination with Polymyxin B) was 12.5 ppm, the MIC ([2]; OD600) was 100 ppm and the MIC ([2]; OD600, printed in brackets after the ppm value) was 0.005 % w/v. For the same molecule, the Rate [3] was “−” and the Productivity [4] was “+ (an improvement between 1.2 and 2-fold)”.
